# Experimental data taken from patent US7358333 (GENODYSSE S A, dated 2008).
# Target: interferon receptor on MCF-7 breast carcinoma cells
# Assay: cell-based or functional assay
"EC50, stimulation of Luciferase activity (pISRE-Luc reporter gene in MCF-7 cells)",ratio of the EC50 value for the mutated protein over the EC50 value for the wild-type protein (pISRE-Luc reporter gene in MCF-7 cells),Binder
5.67 pM,,natural wild-type IFNα-5 protein (ligand) CDLPQTHSLSNRRTLMIMAQMGRISPFSCLKDRHDFGFPQEEFDGNQFQKAQAISVLHEMIQQTFNLFSTKDSSATWDETLLDKFYTELYQQLNDLEACMMQEVGVEDTPLMNVDSILTVRKYFQRITLYLTEKKYSPCAWEVVRAEIMRSFSLSANLQERLRRKE
93.3 pM,18.3 fold,C122S mutated IFNα-5 (ligand) CDLPQTHSLSNRRTLMIMAQMGRISPFSCLKDRHDFGFPQEEFDGNQFQKAQAISVLHEMIQQTFNLFSTKDSSATWDETLLDKFYTELYQQLNDLEASMMQEVGVEDTPLMNVDSILTVRKYFQRITLYLTEKKYSPCAWEVVRAEIMRSFSLSANLQERLRRKE
